Source: patent publication US20090312251

B1: LATS2 (human cDNA, GenBank Accession No. NP-055387.2, Flag- or HA-tagged) (protein)
chain: MRPKTFPATTYSGNSRQRLQEIREGLKQPSKSSVQGLPAGPNSDTSLDAKVLGSKDATRQQQQMRATPKFGPYQKALREIRYSLLPFANESGTSAAAEVNRQMLQELVNAGCDQEMAGRALKQTGSRSIEAALEYISKMGYLDPRNEQIVRVIKQTSPGKGLMPTPVTRRPSFEGTGDSFASYHQLSGTPYEGPSFGADGPTALEEMPRPYVDYLFPGVGPHGPGHQHQHPPKGYGASVEAAGAHFPLQGAHYGRPHLLVPGEPLGYGVQRSPSFQSKTPPETGGYASLPTKGQGGPPGAGLAFPPPAAGLYVPHPHHKQAGPAAHQLHVLGSRSQVFASDSPPQSLLTPSRNSLNVDLYELGSTSVQQWPAATLARRDSLQKPGLEAPPRAHVAFRPDCPVPSRTNSFNSHQPRPGPPGKAEPSLPAPNTVTAVTAAHILHPVKSVRVLRPEPQTAVGPSHPAWVPAPAPAPAPAPAPAAEGLDAKEEHALALGGAGAFPLDVEYGGPDRRCPPPPYPKHLLLRSKSEQYDLDSLCAGMEQSLRAGPNEPEGGDKSRKSAKGDKGGKDKKQIQTSPVPVRKNSRDEEKRESRIKSYSPYAFKFFMEQHVENVIKTYQQKVNRRLQLEQEMAKAGLCEAEQEQMRKILYQKESNYNRLKRAKMDKSMFVKIKTLGIGAFGEVCLACKVDTHALYAMKTLRKKDVLNRNQVAHVKAERDILAEADNEWVVKLYYSFQDKDSLYFVMDYIPGGDMMSLLIRMEVFPEHLARFYIAELTLAIESVHKMGFIHRDIKPDNILIDLDGHIKLTDFGLCTGFRWTHNSKYYQKGSHVRQDSMEPSDLWDDVSNCRCGDRLKTLEQRARKQHQRCLAHSLVGTPNYIAPEVLLRKGYTQLCDWWSVGVILFEMLVGQPPFLAPTPTETQLKVINWENTLHIPAQVKLSPEARDLITKLCCSADHRLGRNGADDLKAHPFFSAIDFSSDIRKQPAPYVPTISHPMDTSNFDPVDEESPWNDASEGSTKAWDTLTSPNNKHPEHAFYEFTFRRFFDDNGYPFRCPKPSGAEASQAESSDLESSDLVDQTEGCQPVYV
B2: LATS1 (human cDNA, GenBank Accession No. NP-004681.1, Flag- or HA-tagged) (protein)
chain: MKRSEKPEGYRQMRPKTFPASNYTVSSRQMLQEIRESLRNLSKPSDAAKAEHNMSKMSTEDPRQVRNPPKFGTHHKALQEIRNSLLPFANETNSSRSTSEVNPQMLQDLQAAGFDEDMVIQALQKTNNRSIEAAIEFISKMSYQDPRREQMAAAAARPINASMKPGNVQQSVNRKQSWKGSKESLVPQRHGPPLGESVAYHSESPNSQTDVGRPLSGSGISAFVQAHPSNGQRVNPPPPPQVRSVTPPPPPRGQTPPPRGTTPPPPSWEPNSQTKRYSGNMEYVISRISPVPPGAWQEGYPPPPLNTSPMNPPNQGQRGISSVPVGRQPIIMQSSSKFNFPSGRPGMQNGTGQTDFMIHQNVVPAGTVNRQPPPPYPLTAANGQSPSALQTGGSAAPSSYTNGSIPQSMMVPNRNSHNMELYNISVPGLQTNWPQSSSAPAQSSPSSGHEIPTWQPNIPVRSNSFNNPLGNRASHSANSQPSATTVTAITPAPIQQPVKSMRVLKPELQTALAPTHPSWIPQPIQTVQPSPFPEGTASNVTVMPPVAEAPNYQGPPPPYPKHLLHQNPSVPPYESISKPSKEDQPSLPKEDESEKSYENVDSGDKEKKQITTSPITVRKNKKDEERRESRIQSYSPQAFKFFMEQHVENVLKSHQQRLHRKKQLENEMMRVGLSQDAQDQMRKMLCQKESNYIRLKRAKMDKSMFVKIKTLGIGAFGEVCLARKVDTKALYATKTLRKKDVLLRNQVAHVKAERDILAEADNEWVVRLYYSFQDKDNLYFVMDYIPGGDMMSLLIRMGIFPESLARFYIAELTCAVESVHKMGFIHRDIKPDNILIDRDGHIKLTDFGLCTGFRWTHDSKYYQSGDHPRQDSMDFSNEWGDPSSCRCGDRLKPLERRAARQHQRCLAHSLVGTPNYIAPEVLLRTGYTQLCDWWSVGVILFEMLVGQPPFLAQTPLETQMKVINWQTSLHIPPQAKLSPEASDLIIKLCRGPEDRLGKNGADEIKAHPFFKTIDFSSDLRQQSASYIPKITHPTDTSNFDPVDPDKLWSDDNEEENVNDTLNGWYKNGKHPEHAFYEFTFRRFFDDNGYPYNYPKPIEYEYINSQGSEQQSDEDDQNTGSEIKNRDLVYV

What was measured:
[1] = molecular target: His-YAP-SA (recombinant hexahistidine-tagged YAP serine to alanine mutant, pET-15b)
[2] = molecular target: YAP S127A mutant (human YAP, transfected, Flag- or HA-tagged)

Protein	in-vitro kinase assay, 32P-labeled YAP by autoradiography [1]	phosphorylation of YAP in co-transfected WW45-deficient keratinocytes (Western blot) [2]
B1	markedly reduced levels of phosphorylation of YAP S127A mutant by LATS1/2	only the S127A mutant was not phosphorylated by activated LATS2 in cells
B2	markedly reduced levels of phosphorylation of YAP S127A mutant by LATS1/2	–
